Legend:
HeLa Kyoto [1] = test: solubility in G1/S (NP-40 vs SDS abundance) (log2 ratio); higher = more soluble; conditions: cell cycle stage: G1/S
HeLa Kyoto [2] = test: solubility change mitosis vs G1/S (difference of NP-40 vs SDS log2 ratios) (log2 ratio difference); higher = more soluble in mitosis
HeLa Kyoto [3] = test: melting temperature (median over replicates), in situ; higher = more thermally stable
HeLa Kyoto [4] = test: thermal stability score vs G1/S (z-score of summed log2 fold changes over temperatures); higher = more thermally stable than in G1/S
[5] = cell cycle stage: early G1 (4.5 h after nocodazole release)
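Throughout, for melting temperature (median over replicates), in situ: HeLa Kyoto cells synchronized by double thymidine or nocodazole block, proteins quantified by TMT10plex mass spectrometry, three independent biological replicates.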
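Throughout, for solubility change mitosis vs G1/S (difference of NP-40 vs SDS log2 ratios): synchronized HeLa Kyoto cells (double thymidine block for G1/S, nocodazole release for mitosis), protein amounts in NP-40 versus SDS lysates quantified by mass spectrometry, three biological replicates.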
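Throughout, for solubility in G1/S (NP-40 vs SDS abundance): HeLa Kyoto cells arrested at G1/S by double thymidine block, proteins quantified by TMT10plex mass spectrometry in mild NP-40 versus SDS extracts, three biological replicates.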
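Throughout, for thermal stability score vs G1/S (z-score of summed log2 fold changes over temperatures): synchronized HeLa Kyoto cells, proteins quantified by TMT10plex mass spectrometry, three biological replicates, mitosis taken 0.5 h after nocodazole release, G1/S directly after double thymidine block.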

Sequence | solubility in G1/S (log2) (HeLa Kyoto [1]) | solubility change mitosis (log2) (HeLa Kyoto [2]) | melting temperature (HeLa Kyoto [3]; cell cycle stage: G1/S) | melting temperature (HeLa Kyoto [3]; cell cycle stage: mitosis) | thermal stability score (HeLa Kyoto [4]; [5]) | thermal stability score (HeLa Kyoto [4]; cell cycle stage: mitosis)
MAFANFRRILRLSTFEKRKSREYEHVRRDLDPNEVWEIVGELGDGAFGKVYKAKNKETGALAAAKVIETKSEEELEDYIVEIEILATCDHPYIVKLLGAYYHDGKLWIMIEFCPGGAVDAIMLELDRGLTEPQIQVVCRQMLEALNFLHSKRIIHRDLKAGNVLMTLEGDIRLADFGVSAKNLKTLQKRDSFIGTPYWMAPEVVMCETMKDTPYDYKADIWSLGITLIEMAQIEPPHHELNPMRVLLKIAKSDPPTLLTPSKWSVEFRDFLKIALDKNPETRPSAAQLLEHPFVSSITSNKALRELVAEAKAEVMEEIEDGRDEGEEEDAVDAASTLENHTQNSSEVSPPSLNADKPLEESPSTPLAPSQSQDSVNEPCSQPSGDRSLQTTSPPVVAPGNENGLAVPVPLRKSRPVSMDARIQVAQEKQVAEQGGDLSPAANRSQKASQSRPNSSALETLGGEKLANGSLEPPAQAAPGPSKRDSDCSSLCTSESMDYGTNLSTDLSLNKEMGSLSIKDPKLYKKTLKRTRKFVVDGVEVSITTSKIISEDEKKDEEMRFLRRQELRELRLLQKEEHRNQTQLSNKHELQLEQMHKRFEQEINAKKKFFDTELENLERQQKQQVEKMEQDHAVRRREEARRIRLEQDRDYTRFQEQLKLMKKEVKNEVEKLPRQQRKESMKQKMEEHTQKKQLLDRDFVAKQKEDLELAMKRLTTDNRREICDKERECLMKKQELLRDREAALWEMEEHQLQERHQLVKQQLKDQYFLQRHELLRKHEKEREQMQRYNQRMIEQLKVRQQQEKARLPKIQRSEGKTRMAMYKKSLHINGGGSAAEQREKIKQFSQQEEKRQKSERLQQQQKHENQMRDMLAQCESNMSELQQLQNEKCHLLVEHETQKLKALDESHNQNLKEWRDKLRPRKKALEEDLNQKKREQEMFFKLSEEAECPNPSTPSKAAKFFPYSSADAS [STK10] | 0.0626 | -0.0397 | 48.1 °C | 48.2 °C | 1.19 | 2.43
MAFNFGAPSGTSGTAAATAAPAGGFGGFGTTSTTAGSAFSFSAPTNTGTTGLFGGTQNKGFGFGTGFGTTTGTSTGLGTGLGTGLGFGGFNTQQQQQTTLGGLFSQPTQAPTQSNQLINTASALSAPTLLGDERDAILAKWNQLQAFWGTGKGYFNNNIPPVEFTQENPFCRFKAVGYSCMPSNKDEDGLVVLVFNKKETEIRSQQQQLVESLHKVLGGNQTLTVNVEGTKTLPDDQTEVVIYVVERSPNGTSRRVPATTLYAHFEQANIKTQLQQLGVTLSMTRTELSPAQIKQLLQNPPAGVDPIIWEQAKVDNPDSEKLIPVPMVGFKELLRRLKVQDQMTKQHQTRLDIISEDISELQKNQTTSVAKIAQYKRKLMDLSHRTLQVLIKQEIQRKSGYAIQADEEQLRVQLDTIQGELNAPTQFKGRLNELMSQIRMQNHFGAVRSEERYYIDADLLREIKQHLKQQQEGLSHLISIIKDDLEDIKLVEHGLNETIHIRGGVFS [NUP54] | 0.299 | 0.0698 | 51.5 °C | 49 °C | -3.43 | -5.53
MAFPPRRRLRLGPRGLPLLLSGLLLPLCRAFNLDVDSPAEYSGPEGSYFGFAVDFFVPSASSRMFLLVGAPKANTTQPGIVEGGQVLKCDWSSTRRCQPIEFDATGNRDYAKDDPLEFKSHQWFGASVRSKQDKILACAPLYHWRTEMKQEREPVGTCFLQDGTKTVEYAPCRSQDIDADGQGFCQGGFSIDFTKADRVLLGGPGSFYWQGQLISDQVAEIVSKYDPNVYSIKYNNQLATRTAQAIFDDSYLGYSVAVGDFNGDGIDDFVSGVPRAARTLGMVYIYDGKNMSSLYNFTGEQMAAYFGFSVAATDINGDDYADVFIGAPLFMDRGSDGKLQEVGQVSVSLQRASGDFQTTKLNGFEVFARFGSAIAPLGDLDQDGFNDIAIAAPYGGEDKKGIVYIFNGRSTGLNAVPSQILEGQWAARSMPPSFGYSMKGATDIDKNGYPDLIVGAFGVDRAILYRARPVITVNAGLEVYPSILNQDNKTCSLPGTALKVSCFNVRFCLKADGKGVLPRKLNFQVELLLDKLKQKGAIRRALFLYSRSPSHSKNMTISRGGLMQCEELIAYLRDESEFRDKLTPITIFMEYRLDYRTAADTTGLQPILNQFTPANISRQAHILLDCGEDNVCKPKLEVSVDSDQKKIYIGDDNPLTLIVKAQNQGEGAYEAELIVSIPLQADFIGVVRNNEALARLSCAFKTENQTRQVVCDLGNPMKAGTQLLAGLRFSVHQQSEMDTSVKFDLQIQSSNLFDKVSPVVSHKVDLAVLAAVEIRGVSSPDHVFLPIPNWEHKENPETEEDVGPVVQHIYELRNNGPSSFSKAMLHLQWPYKYNNNTLLYILHYDIDGPMNCTSDMEINPLRIKISSLQTTEKNDTVAGQGERDHLITKRDLALSEGDIHTLGCGVAQCLKIVCQVGRLDRGKSAILYVKSLLWTETFMNKENQNHSYSLKSSASFNVIEFPYKNLPIEDITNSTLVTTNVTWGIQPAPMPVPVWVIILAVLAGLLLLAVLVFVMYRMGFFKRVRPPQEEQEREQLQPHENGEGNSET [ITGAV] | 0.295 | -0.152 | 56 °C | 54.8 °C | -1.75 | -1.34
MAFRGWRPPPPPLLLLLLWVTGQAAPVAGLGSDAELQIERRFVPDECPRTVRSGDFVRYHYVGTFPDGQKFDSSYDRDSTFNVFVGKGQLITGMDQALVGMCVNERRFVKIPPKLAYGNEGVSGVIPPNSVLHFDVLLMDIWNSEDQVQIHTYFKPPSCPRTIQVSDFVRYHYNGTFLDGTLFDSSHNRMKTYDTYVGIGWLIPGMDKGLLGMCVGEKRIITIPPFLAYGEDGDGKDIPGQASLVFDVALLDLHNPKDSISIENKVVPENCERISQSGDFLRYHYNGTLLDGTLFDSSYSRNRTFDTYIGQGYVIPGMDEGLLGVCIGEKRRIVVPPHLGYGEEGRGNIPGSAVLVFDIHVIDFHNPSDSISITSHYKPPDCSVLSKKGDYLKYHYNASLLDGTLLDSTWNLGKTYNIVLGSGQVVLGMDMGLREMCVGEKRTVIIPPHLGYGEAGVDGEVPGSAVLVFDIELLELVAGLPEGYMFIWNGEVSPNLFEEIDKDGNGEVLLEEFSEYIHAQVASGKGKLAPGFDAELIVKNMFTNQDRNGDGKVTAEEFKLKDQEAKHDEL [FKBP9] | 0.21 | -0.0483 | 53.7 °C | 54.5 °C | 4.29 | 4.83
MAFVPVIPESYSHVLAEFESLDPLLSALRLDSSRLKCTSIAVSRKWLALGSSGGGLHLIQKEGWKHRLFLSHREGAISQVACCLHDDDYVAVATSQGLVVVWELNQERRGKPEQMYVSSEHKGRRVTALCWDTAILRVFVGDHAGKVSAIKLNTSKQAKAAAAFVMFPVQTITTVDSCVVQLDYLDGRLLISSLTRSFLCDTEREKFWKIGNKERDGEYGACFFPGRCSGGQQPLIYCARPGSRMWEVNFDGEVISTHQFKKLLSLPPLPVITLRSEPQYDHTAGSSQSLSFPKLLHLSEHCVLTWTERGIYIFIPQNVQVLLWSEVKDIQDVAVCRNELFCLHLNGKVSHLSLISVERCVERLLRRGLWNLAARTCCLFQNSVIASRARKTLTADKLEHLKSQLDHGTYNDLISQLEELILKFEPLDSACSSRRSSISSHESFSILDSGIYRIISSRRGSQSDEDSCSLHSQTLSEDERFKEFTSQQEEDLPDQCCGSHGNEDNVSHAPVMFETDKNETFLPFGIPLPFRSPSPLVSLQAVKESVSSFVRKTTEKIGTLHTSPDLKVRPELRGDEQSCEEDVSSDTCPKEEDTEEEKEVTSPPPEEDRFQELKVATAEAMTKLQDPLVLFESESLRMVLQEWLSHLEKTFAMKDFSGVSDTDNSSMKLNQDVLLVNESKKGILDEDNEKEKRDSLGNEESVDKTACECVRSPRESLDDLFQICSPCAIASGLRNDLAELTTLCLELNVLNSKIKSTSGHVDHTLQQYSPEILACQFLKKYFFLLNLKRAKESIKLSYSNSPSVWDTFIEGLKEMASSNPVYMEMEKGDLPTRLKLLDDEVPFDSPLLVVYATRLYEKFGESALRSLIKFFPSILPSDIIQLCHHHPAEFLAYLDSLVKSRPEDQRSSFLESLLQPESLRLDWLLLAVSLDAPPSTSTMDDEGYPRPHSHLLSWGYSQLILHLIKLPADFITKEKMTDICRSCGFWPGYLILCLELERRREAFTNIVYLNDMSLMEGDNGWIPETVEEWKLLLHLIQSKSTRPAPQESLNGSLSDGPSPINVENVALLLAKAMGPDRAWSLLQECGLALELSEKFTRTCDILRIAEKRQRALIQSMLEKCDRFLWSQQA [HPS5] | -0.142 | -0.108 | 48.6 °C | 49.5 °C | 1.53 | 1.55
MAGAGPAPGLPGAGGPVVPGPGAGIPGKSGEERLKEMEAEMALFEQEVLGAPVPGIPTAVPAVPTVPTVPTVEAMQVPAAPVIRPIIATNTYQQVQQTLEARAAAAATVVPPMVGGPPFVGPVGFGPGDRSHLDSPEAREAMFLRRAAVAPQRAPILRPAFVPHVLQRADSALSSAAAGPRPMALRPPHQALVGPPLPGPPGPPMMLPPMARAPGPPLGSMAALRPPLEEPAAPRELGLGLGLGLKEKEEAVVAAAAGLEEASAAVAVGAGGAPAGPAVIGPSLPLALAMPLPEPEPLPLPLEVVRGLLPPLRIPELLSLRPRPRPPRPEPPPGLMALEVPEPLGEDKKKGKPEKLKRCIRTAAGSSWEDPSLLEWDADDFRIFCGDLGNEVNDDILARAFSRFPSFLKAKVIRDKRTGKTKGYGFVSFKDPSDYVRAMREMNGKYVGSRPIKLRKSMWKDRNLDVVRKKQKEKKKLGLR [RBM42] | 0.0912 | 0.019 | 51.6 °C | 50.1 °C | -2.37 | -2.6
MAGAIIENMSTKKLCIVGGILLVFQIIAFLVGGLIAPGPTTAVSYMSVKCVDARKNHHKTKWFVPWGPNHCDKIRDIEEAIPREIEANDIVFSVHIPLPHMEMSPWFQFMLFILQLDIAFKLNNQIRENAEVSMDVSLAYRDDAFAEWTEMAHERVPRKLKCTFTSPKTPEHEGRYYECDVLPFMEIGSVAHKFYLLNIRLPVNEKKKINVGIGEIKDIRLVGIHQNGGFTKVWFAMKTFLTPSIFIIMVWYWRRITMMSRPPVLLEKVIFALGISMTFINIPVEWFSIGFDWTWMLLFGDIRQGIFYAMLLSFWIIFCGEHMMDQHERNHIAGYWKQVGPIAVGSFCLFIFDMCERGVQLTNPFYSIWTTDIGTELAMAFIIVAGICLCLYFLFLCFMVFQVFRNISGKQSSLPAMSKVRRLHYEGLIFRFKFLMLITLACAAMTVIFFIVSQVTEGHWKWGGVTVQVNSAFFTGIYGMWNLYVFALMFLYAPSHKNYGEDQSNGDLGVHSGEELQLTTTITHVDGPTEIYKLTRKEAQE [WLS] | -0.178 | -0.236 | 54.2 °C | 54.2 °C | 0.834 | 2.64
MAGDSEQTLQNHQQPNGGEPFLIGVSGGTASGKSSVCAKIVQLLGQNEVDYRQKQVVILSQDSFYRVLTSEQKAKALKGQFNFDHPDAFDNELILKTLKEITEGKTVQIPVYDFVSHSRKEETVTVYPADVVLFEGILAFYSQEVRDLFQMKLFVDTDADTRLSRRVLRDISERGRDLEQILSQYITFVKPAFEEFCLPTKKYADVIIPRGADNLVAINLIVQHIQDILNGGPSKRQTNGCLNGYTPSRKRQASESSSRPH [UCK2] | 0.28 | 0.265 | 52.2 °C | 52.9 °C | 0.367 | -1.36
MAGEGDQQDAAHNMGNHLPLLPAESEEEDEMEVEDQDSKEAKKPNIINFDTSLPTSHTYLGADMEEFHGRTLHDDDSCQVIPVLPQVMMILIPGQTLPLQLFHPQEVSMVRNLIQKDRTFAVLAYSNVQEREAQFGTTAEIYAYREEQDFGIEIVKVKAIGRQRFKVLELRTQSDGIQQAKVQILPECVLPSTMSAVQLESLNKCQIFPSKPVSREDQCSYKWWQKYQKRKFHCANLTSWPRWLYSLYDAETLMDRIKKQLREWDENLKDDSLPSNPIDFSYRVAACLPIDDVLRIQLLKIGSAIQRLRCELDIMNKCTSLCCKQCQETEITTKNEIFSLSLCGPMAAYVNPHGYVHETLTVYKACNLNLIGRPSTEHSWFPGYAWTVAQCKICASHIGWKFTATKKDMSPQKFWGLTRSALLPTIPDTEDEISPDKVILCL [CRBN] | -0.152 | -0.303 | 53.7 °C | 53.4 °C | -0.823 | -2.4
